Data as given in US20130156764A1, “NEUTRALIZATION OF FLT3 LIGAND AS A LEUKEMIA THERAPY” (The Johns Hopkins University, priority 2010, published 2013).

Key:
[1] = test system: FL−/− primary hematopoietic progenitor cells expressing FLT3/ITD or FLT3/TKD; assay: Colony-replating assay of FL−/− bone marrow progenitors transduced with FLT3 mutants, with FL; format: cell-based, mice
Text: Bone marrow was harvested from FL^−/− mice, lineage depleted (Lineage Cell Depletion kit; Militenyibi Biotec, Auburn Calif.), and transduced with EF1-ITD-UBC-GFP, EF1-TKD-UBC-GFP, or EF1-UBC-GFP lentivirus by 3 rounds of spin-infection on days 1, 2 and 3. The EF1-ITD-UBC-GFP vector was constructed by inserting full-length FLT3/ITD in EF1-UBC-GFP lentiviral vector. The EF1-TKD-UBC-GFP was constructed by inserting wtFLT3 into the EF1-UBC-GFP followed by mutagenesis of wtFLT3 to substitute nucleotide G of D835 with T resulting in an Aspartic acid to Tyrosine change (QuickChange Site-Directed Mutagenesis Kit; Stratagene, La Jolla, Calif.). GFP positive cells were then sorted by FACS. 10^3 cells were plated into triplicate 35 mm Petri dishes (Nunc) in 1 ml of Methocult M3434 (StemCell Technologies Inc., Vancouver) containing 50 ng/mL rm SCF, 10 ng/mL rm IL-3, 10 ng/mL rh IL-6, and 3 units/mL rh Erythropoietin. Cultures were incubated at 37° C. in a humidified atmosphere of 5% CO2, and colonies consisting of >35 cells were scored after 9-11 days. For the colony-replating assay all cells from the previous culture were collected and re-plated at 1×10^4 cells/plate in fresh methylcellulose medium. All cells were replated three times.
To evaluate the effect of FL stimulation on primary hematopoietic progenitor cells expressing FLT3 mutants, lineage negative progenitors were harvested from FL^−/− mice and transduced with FLT3/ITD-GFP, FLT3/TKD-GFP, or GFP control lentivirus. GFP-positive cells were selected by FACS, cultured in methylcellulose with and without FL, and the colony numbers were counted after 9 days.
After colonies were counted, all of the cells in each culture dish were harvested from the methylcellulose, washed and re-plated in fresh methylcellulose medium to examine their potential to form colonies upon secondary plating; this process was repeated for two more passages to determine the frequency of tertiary and quaternary colonies. […]

[2] = test system: primary AML blasts expressing homozygous FLT3/ITD mutations; assay: Survival (MTT) of primary AML blasts with FL; format: cell-based, human; conditions: complete medium, 4 days
Procedure: (§1) 2×10^4 cells in 100 μl serum-free medium were plated into triplicate wells of 96-well plates. Survival was assessed by MTT assay (Roche, Indianapolis, Ind.) and viable cell number counting by trypan blue (GIBCO, Rockville, Md.) exclusion according to the manufacturer's instructions.
To study whether further activation of mutant FLT3 receptors in response to FL also occurs in primary cells, experiments were carried on primary AML blasts expressing homozygous FLT3/ITD mutations (i.e., no detectable wild type FLT3 by PCR). The blasts were stimulated with 100 ng/mL FL. […] The survival of AML blasts was assessed by culturing them in complete medium with and without FL for 4 days.

[3] = test system: TF1/ITD and TF1/TKD cells; assay: Apoptosis (Annexin V/7AAD) and survival of TF1/ITD and TF1/TKD cells with FL; format: cell-based; conditions: for survival (viable cell numbers): serum free medium; for apoptotic population: serum-free, 48 hours, presence of FL
Procedure: Evaluation of apoptosis was performed by annexin V/7-AAD staining according to the recommendations of the manufacturer (Becton Dickinson, San Jose, Calif.). After serum starvation, 5×10^5 cells were washed with cold PBS and re-suspended in 100 μL of binding buffer. Following incubation with 5 μL of annexin V-PE and 5 μL of 7-AAD in the dark for 15 minutes at room temperature, cells were analyzed by flow cytometry (FACSort, Becton Dickinson) with Cell Quest software (Becton Dickinson). Compensation was performed with samples stained with either annexin V-PE or 7-AAD alone.
as §1
(§2) The possibility of further activation of FLT3 mutant receptors by exogenous FL was also tested in cell lines in which FL autocrine, paracrine, or intracrine stimulation of FLT3 receptor might exist. […] TF1 cells expressing FLT3 mutant receptors were starved for 16 hours in serum-free medium and washed once with PBS to deplete soluble FL (either produced by the cells or contained in the serum). These cells were then stimulated with exogenous FL for 15 minutes. More than 2-fold enhancement of FLT3 phosphorylation was detected in both TF1/ITD and TF1/TKD cell lines (FIG. 12A). […] To assess the functional effect of exogenous FL, TF1/ITD and TF1/TKD cells were cultured in serum-free medium in the absence and presence of FL for 48 hours. Apoptosis was assessed by Annexin V and 7AAD staining followed by FACS analysis. […] There was no change of cell cycle status in response to FL in these cells (data not shown).

[4] = test system: FLT3/ITD and FLT3/TKD in TF1 cells; assay: FL stimulation, FLT3 phosphorylation in TF1/ITD and TF1/TKD cells; format: cell-based; conditions: FL 15 minutes after serum starvation
Procedure: TF1 and BaF3 cells were transfected with pCINeo constructs containing either FLT3/ITD or FLT3/TKD mutation by electroporation (Bio-Rad, Hercules, Calif.). Stable transfectants were then selected by limiting dilution in 96-well plates with 1 mg/mL G418 (Invitrogen, Carlsbad, Calif.).
as §2

B1: FL: Recombinant human FL (fms-related tyrosine kinase ligand) purchased from PeproTech; SEQ ID NO: 1 (protein, listed as Homo sapiens)
chain: MTVLAPAWSPTTYLLLLLLLSSGLSGTQDCSFQHSPISSDFAVKIRELSDYLLQDYPVTVASNLQDEELCGGLWRLVLAQRWMERLKTVAGSKMQGLLERVNTEIHFVTKCAFQPPPSCLRFVQTNISRLLQETSEQLVALKPWITRQNFSRCLELQCQPDSSTLPPPWSPRPLEATAPTAPQPPLLLLLLLPVGLLLLAAAWCLHWQRTRRRTPRPGEQVPPVPSPQDLLLVEH
number of first-generation colonies ([1]; BM cells transduced with FLT3 mutants, 9 days): slightly increased | re-plating activity upon serial passages ([1]; BM cells transduced with FLT3 mutants, cultured in presence of FL): retained their re-plating activity | colony size ([1]; FL−/− BM cells expressing FLT3 mutants stimulated with FL): significant increase in colony size | patient samples with increased survival of AML blasts [2]: three of four | cell cycle status in response to FL ([3]; TF1/ITD and TF1/TKD): no change | survival (viable cell numbers) ([3]; TF1/ITD): increased the survival | apoptotic population ([3]; TF1/ITD): 49.54% | survival (viable cell numbers) ([3]; TF1/TKD): no significant difference | apoptotic population ([3]; TF1/TKD): 31.63% | enhancement of FLT3 phosphorylation [4]: More than 2 fold
